Substitutions are numbered along the chain they refer to. Numbers in names are those of the source.
Tests used:
[1] = molecular target: T1, recombinant human FcRn (Sino Biological Inc. Cat. No. CT009-H08H) (human, UniProt P55899 24-297; P61769 21-119); assay: competition ELISA, pH 7.4: test IgG4 (stable NS0) titrated against fixed biotinylated murine parent antibody on recombinant human FcRn; streptavidin-HRP/TMB, OD450 [bottom panel]
T1 construct: also called immobilized FcRn
Method: (§1) The IgG4 antibodies were tested for antigen binding in a competition ELISA at pH 6.0 and pH 7.4. A Nunc Immuno MaxiSorp 96 well flat bottom microtitre plate (Fisher, cat. no. DIS-971-030J) was pre-coated with 1 μg/ml of an FcRn antibody specific for an IgG-binding epitope distinct from the albumin-binding region overnight at pH 7.4. The following day, 1 μg/ml recombinant human FcRn (Sino Biological Inc. cat. no. CT009-H08H) diluted in PBS pH 7.4 was added to the wells and incubated for 1 hour at 37° C. After washing the plates 3× with PBST pH 7.4, the plates were blocked with PBSM pH 7.4 for 1 hour at 37° C. From this point onwards, all wash and incubation steps were performed at the chosen assay pH (pH 6.0 or 7.4). […] The reaction was stopped with 3 M HCl, absorbance read at 450 nm on a Dynex Technologies MRX TC II plate reader and the binding curves plotted.
(§2) NS0 produced humanized affinity matured IgGs were used in all assays other than G50_C10/Vκ3), which was purified from transiently expressing HEK cells.

[2] = molecular target: T1, recombinant human FcRn (Sino Biological …); assay: competition ELISA, pH 6.0: test IgG4 (stable NS0) titrated against fixed biotinylated murine parent antibody on recombinant human FcRn; streptavidin-HRP/TMB, OD450 [bottom panel]
Method: as §1, §2

[3] = molecular target: T2, FcRn (analyte in the Biacore T200 study) (human, UniProt P55899 24-297; P61769 21-119, limits assumed); assay: SPR Biacore T200, antibody amine-coupled to CM5, FcRn analyte, 1:1 model; pH not stated
T2 construct: also called human FcRn
Method: (§3) Antibodies were immobilized onto a Series S CM5 sensor chip surface using standard amine coupling chemistry and analyte (FcRn) flowed over the surface. A 2-fold dilution range was selected from 50-0.01 nM FcRn. The association phase of FcRn analyte was monitored for 450 seconds, and dissociation was initially measured for either 250 or 2500 seconds, at 40 μl/min Fc1 was a reference channel and was subtracted from other flow cells to correct for non-specific binding. […] Kinetic values are based on a 1:1 binding model (Table 5).

[4] = molecular target: T3, monomeric His-tagged hFcRn (human, UniProt P55899 24-297; P61769 21-119, limits assumed); assay: SPR Biacore 3000, antibody amine-coupled to CM5, His-tagged hFcRn analyte, pH 6.0, 25 C, 1:1 Langmuir
T3 construct: also called human FcRn; not shown: His tag
Method: (§4) The coupling was performed by injecting 2 μg/ml of each protein into 10 mM sodium acetate, pH 4.5 (GE Healthcare), using the amine coupling kit (GE Healthcare). HBS-P buffer pH 7.4 (0.01 M HEPES, 0.15 M NaCl, 0.005% surfactant P20) or phosphate buffer pH 6.0 (67 mM phosphate buffer, 0.15 M NaCl, 0.005% Tween 20) were used as running buffer and dilution buffer. […] All SPR experiments were conducted at 25° C. with a flow rate of 40 μl/min Binding data were zero-adjusted, and the reference cell value subtracted. The Langmuir 1:1 ligand binding model provided by the BIAevaluation software (version 4.1) was used to determine the binding kinetics. The closeness of the fit is described by the statistical value χ².

[5] = molecular target: T1, recombinant human FcRn (Sino Biological …); assay: competition ELISA, pH 6.0: test IgG4 (stable NS0) titrated against fixed biotinylated murine parent antibody on recombinant human FcRn; streptavidin-HRP/TMB, OD450 [middle panel]
Method: as §1, §2

[6] = molecular target: T2, FcRn (analyte in the Biacore T200 study); assay: SPR Biacore T200, antibody amine-coupled to CM5, FcRn analyte, 1:1 model; chip with the three best variants (repeat run, dissociation 4500 s per paragraph 156); pH not stated
Method: as §3

[7] = molecular target: T1, recombinant human FcRn (Sino Biological …); assay: competition ELISA, pH 7.4: test IgG4 (stable NS0) titrated against fixed biotinylated murine parent antibody on recombinant human FcRn; streptavidin-HRP/TMB, OD450 [middle panel]
Method: as §1, §2

[8] = molecular target: T3, monomeric His-tagged hFcRn; assay: SPR Biacore 3000, antibody amine-coupled to CM5, His-tagged hFcRn analyte, pH 7.4, 25 C, 1:1 Langmuir
Method: as §4
The kinetic rate constants were obtained using a simple first-order (1:1) Langmuir bimolecular interaction model. The kinetic values represent the average of duplicates. The χ² (chi-square) values represent the fit to the binding model used.

[9] = molecular target: T1, recombinant human FcRn (Sino Biological …); assay: competition ELISA, pH 6.0; competitor biotinylated parent murine antibody; captured recombinant human FcRn; HEK-expressed IgG4
Method: as §1

[10] = molecular target: T1, recombinant human FcRn (Sino Biological …); assay: competition ELISA, pH 6.0; competitor biotinylated parent murine antibody; captured recombinant human FcRn; NS0-expressed IgG4
Method: as §1, §2

[11] = molecular target: T1, recombinant human FcRn (Sino Biological …); assay: competition ELISA, pH 7.4; competitor biotinylated parent murine antibody; captured recombinant human FcRn; NS0-expressed IgG4
Method: as §1, §2

[12] = molecular target: T1, recombinant human FcRn (Sino Biological …); assay: competition ELISA, pH 7.4: test IgG4 (transient HEK) titrated against fixed biotinylated murine parent antibody on recombinant human FcRn; streptavidin-HRP/TMB, OD450
Method: as §1

[13] = molecular target: T1, recombinant human FcRn (Sino Biological …); assay: competition ELISA, pH 6.0: test IgG4 (stable NS0) titrated against fixed biotinylated murine parent antibody on recombinant human FcRn; streptavidin-HRP/TMB, OD450 [top panel]
Method: as §1, §2

[14] = molecular target: T2, FcRn (analyte in the Biacore T200 study); assay: SPR Biacore T200, antibody amine-coupled to CM5, FcRn analyte, 1:1 model; chip with the three best variants (repeat run, dissociation 4500 s per paragraph 156); pH not stated; repeat run of the three best variants, dissociation 4500 s
Method: as §3

[15] = molecular target: T1, recombinant human FcRn (Sino Biological …); assay: competition ELISA, pH 7.4: test IgG4 (stable NS0) titrated against fixed biotinylated murine parent antibody on recombinant human FcRn; streptavidin-HRP/TMB, OD450 [top panel]
Method: as §1, §2

[16] = molecular target: T1, recombinant human FcRn (Sino Biological …); assay: competition ELISA, pH 7.4; competitor biotinylated parent murine antibody; captured recombinant human FcRn; HEK-expressed IgG4
Method: as §1

[17] = molecular target: T2, FcRn (analyte in the Biacore T200 study); assay: SPR Biacore T200; KD of humanized parent VH1/Vκ1 divided by KD of the test antibody on the same chip
Method: as §3

T2 sequence (P55899 24-297 limits assumed, chain 1 of 2): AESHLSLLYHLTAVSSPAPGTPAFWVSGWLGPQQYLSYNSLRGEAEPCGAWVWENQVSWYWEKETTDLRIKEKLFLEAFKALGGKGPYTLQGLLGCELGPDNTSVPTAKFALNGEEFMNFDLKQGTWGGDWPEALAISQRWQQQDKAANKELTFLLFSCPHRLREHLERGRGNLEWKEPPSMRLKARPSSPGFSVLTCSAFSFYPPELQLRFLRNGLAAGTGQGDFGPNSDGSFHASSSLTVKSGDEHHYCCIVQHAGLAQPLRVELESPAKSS
T2 sequence (P61769 21-119 limits assumed, chain 2 of 2): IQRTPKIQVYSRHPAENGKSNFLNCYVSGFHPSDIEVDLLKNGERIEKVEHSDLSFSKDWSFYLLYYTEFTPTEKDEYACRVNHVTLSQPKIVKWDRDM
T1 sequence (P55899 24-297 limits assumed, chain 1 of 2): as the sequence (P55899 24-297 limits assumed, chain 1 of 2) above
T1 sequence (P61769 21-119 limits assumed, chain 2 of 2): as the sequence (P61769 21-119 limits assumed, chain 2 of 2) above
T3 sequence (P55899 24-297 limits assumed, chain 1 of 2): as the sequence (P55899 24-297 limits assumed, chain 1 of 2) above
T3 sequence (P61769 21-119 limits assumed, chain 2 of 2): as the sequence (P61769 21-119 limits assumed, chain 2 of 2) above

B1: G49_H9.3/Vκ3 (antibody, V domains shown)
VH: EVQLVESGGGLVKPGGSLKLSCAASGFTFSDYGMHWVRQAPGKGLEWVAYISSGSSTIYYADTVKGRFTISRDNAKNTLYLQMNSLRAEDTAMYYCARFDSLSTVGDYWGQGTSVTVSS
VL: DIVMTQSPDSLSASVGDRVTITCKASQSVSNDVAWYQQKPGQPPKLLIYYASNRYTGVPDRFSGSGYGTDFTLTISSLQAEDVAVYFCQQDYSSLTFGQGTKLEIK
notes: Bivalent IgG4 with S241P, human kappa; also called SYNT002-21; G49_H9.3 VH1
[1]
  IC50 (read off the curve): ~0.5 µg/mL
[2]
  IC50 (read off the curve): ~0.2 µg/mL
[3]
  Kd: 1.11 nM
[4]
  Kd: 1.7 nM

B2: G15_C3/Vκ3 (antibody, V domains shown)
VH: B1 VH with F99G, D100E, L102T, S103T
VL: B1 VL
notes: Bivalent IgG4 with S241P, human kappa; also called SYNT002-3; G15_C3 VH1
[5]
  IC50 (read off the curve): ~0.3 µg/mL
[6]
  Kd: 0.39 nM
[7]
  IC50 (read off the curve): ~0.5 µg/mL
[8]
  Kd: 7.8 nM
[4]
  Kd: 0.7 nM

B3: G54_D11/Vκ3 (antibody, V domains shown)
VH: B1 VH with S101T, L102P, S103A
VL: B1 VL
notes: Bivalent IgG4 with S241P, human kappa; also called SYNT002-17; G54_D11 VH1
[2]
  IC50 (read off the curve): ~0.3 µg/mL
[8]
  Kd: 34 nM
[3]
  Kd: 3.71 nM

B4: G49_H9.5/Vκ3 (antibody, V domains shown)
VH: B1 VH with F99L, D100E, S101A, L102V, T104A
VL: B1 VL
notes: Bivalent IgG4 with S241P, human kappa; also called G49_H9.5 VH1
[9]
  Average relative IC50 (relative to humanized parent): 0.8
[10]
  Average relative IC50 (relative to humanized parent): 0.8
[3]
  Kd: 1.21 nM
[11]
  Average relative IC50 (relative to humanized parent): 0.87

B5: G52_G9/Vκ3 (antibody, V domains shown)
VH: B1 VH with S101T, L102P
VL: B1 VL
notes: Bivalent IgG4 with S241P, human kappa; also called G52_G9 VH1
[3]
  Kd: 1.99 nM

B6: G47_B10/Vκ3 (antibody, V domains shown)
VH: B1 VH with F99A, D100E, L102T, S103T
VL: B1 VL
notes: Bivalent IgG4 with S241P, human kappa; also called SYNT002-8; G47_B10VH1_Vκ3
[12]
  IC50 (read off the curve): ~0.2 µg/mL
[13]
  IC50 (read off the curve): ~0.3 µg/mL
[14]
  Kd: 0.24 nM
[15]
  IC50 (read off the curve): ~0.5 µg/mL
[8]
  Kd: 4 nM
[3]
  Kd: 0.33 nM
[4]
  Kd: 0.6 nM

B7: G47_H6/Vκ3 (antibody, IgG4, V domains shown)
VH: B1 VH with D100S
VL: B1 VL
notes: IgG4 with S241P, human kappa; also called G47_H6 VH1
[16]
  Average relative IC50 (relative to humanized parent): 0.7
[9]
  Average relative IC50 (relative to humanized parent): 0.8
[10]
  Average relative IC50 (relative to humanized parent): 0.84
[17]
  Fold difference in KD: 1.2 fold
[3]
  Kd: 2.09 nM
  koff: 0.000814 s⁻¹
  kon: 389000 M⁻¹ s⁻¹
[11]
  Average relative IC50 (relative to humanized parent): 0.89

From patent US20190135915A1 (SYNTIMMUNE, published 2019)
